Measured values as given in article PMC6750980.

Molecular target: Hepatitis C virus p7 protein from genotype 5a (EUH1480 strain) (Hepatitis C virus genotype 5a (EUH1480 strain))
Assay: SEC

## Hepatitis C virus p7 protein from genotype 5a (EUH1480 strain) (natural protein)
  stoichiometry N: 6
